Columns and labels:
[1] = target: KAT1 K+ channel of Arabidopsis, myc-tagged (Arabidopsis) (UniProt Q39128)
[2] = target: KAT1 K+ channel of Arabidopsis, myc-tagged (Arabidopsis) (UniProt Q39128); remark: listed apart in the source

Sequence of UniProt Q39128 (Q39128 whole entry): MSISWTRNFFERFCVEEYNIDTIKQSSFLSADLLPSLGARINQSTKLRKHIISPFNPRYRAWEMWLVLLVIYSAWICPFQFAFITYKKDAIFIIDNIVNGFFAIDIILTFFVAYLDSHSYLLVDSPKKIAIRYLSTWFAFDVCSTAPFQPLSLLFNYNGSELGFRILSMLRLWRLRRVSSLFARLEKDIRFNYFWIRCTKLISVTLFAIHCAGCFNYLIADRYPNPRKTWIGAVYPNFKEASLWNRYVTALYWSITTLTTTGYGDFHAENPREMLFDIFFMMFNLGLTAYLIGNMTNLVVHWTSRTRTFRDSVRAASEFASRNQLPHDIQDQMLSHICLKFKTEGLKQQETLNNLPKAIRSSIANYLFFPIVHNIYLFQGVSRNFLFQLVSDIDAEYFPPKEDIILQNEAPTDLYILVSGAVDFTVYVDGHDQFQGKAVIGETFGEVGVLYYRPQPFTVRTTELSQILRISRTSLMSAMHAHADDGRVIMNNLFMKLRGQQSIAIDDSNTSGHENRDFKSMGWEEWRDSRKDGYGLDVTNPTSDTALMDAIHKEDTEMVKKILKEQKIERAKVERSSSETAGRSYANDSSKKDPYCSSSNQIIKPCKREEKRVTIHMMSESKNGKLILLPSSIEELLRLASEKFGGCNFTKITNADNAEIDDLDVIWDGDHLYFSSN

Row | single-channel open probability Po of KAT1 at −120 mV after adding 1 μM SYP121^ΔC to inside-out patches [1] | amount of SYP121^ΔC in the oocyte that gives a near-maximal effect on KAT1 gating (roughly 0.4 ng per oocyte) [2] | Substance
1 | 3.4% | – | SYP121^ΔC, soluble cytosolic domain, recombinant (domain or fragment)
2 | – | 0.14 µM | SYP121^ΔC, cytosolic SNARE domain, expressed in oocytes (domain or fragment)
